These are literature values, as cited in paper PMC10219547.

Where two headings read alike, the source gives them in different places.

The target of series [1] is PTH1R (Homo sapiens) (UniProt Q03431).
Series [2] shares this target. The source holds these as a separate data set.

Sequence of UniProt Q03431 (Q03431 27-593): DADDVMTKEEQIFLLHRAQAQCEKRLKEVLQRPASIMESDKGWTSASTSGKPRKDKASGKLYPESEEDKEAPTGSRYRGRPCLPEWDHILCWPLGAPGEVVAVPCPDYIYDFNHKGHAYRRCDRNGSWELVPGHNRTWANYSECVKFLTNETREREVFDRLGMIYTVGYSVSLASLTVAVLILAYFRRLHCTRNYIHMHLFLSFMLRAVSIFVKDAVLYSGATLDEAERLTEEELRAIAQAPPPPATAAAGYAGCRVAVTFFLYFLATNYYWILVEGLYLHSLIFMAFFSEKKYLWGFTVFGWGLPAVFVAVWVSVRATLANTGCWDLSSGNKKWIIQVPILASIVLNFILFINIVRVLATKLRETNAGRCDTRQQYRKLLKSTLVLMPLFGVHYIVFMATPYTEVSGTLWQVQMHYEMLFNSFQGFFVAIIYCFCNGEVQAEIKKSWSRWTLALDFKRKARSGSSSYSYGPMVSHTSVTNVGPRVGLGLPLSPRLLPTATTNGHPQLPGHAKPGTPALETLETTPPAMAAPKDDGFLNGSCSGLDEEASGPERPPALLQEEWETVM

In the case of TIP39 (from UniProt Q96A98), in the series with PTH1R (Homo sapiens) [1], the equilibrium dissociation constant (Kd) (commonly the concentration at which binding is half-saturated) was 60 nM.
TIP(7-39) 7-39 (from UniProt Q96A98): the Kd in the series with PTH1R (Homo sapiens) [2] is 17 nM.
